Molecular target: PDGFR-alpha (platelet derived growth factor receptor-alpha) on human osteosarcoma MG-63 cells (human) (UniProt P16234)
Assay: FACS titration on MG-63 cells, nonlinear fit of geometric mean fluorescence; goat anti-mouse detection; 95% CI ±99 pM

PDGFR-alpha (platelet derived growth factor receptor-alpha) on human osteosarcoma MG-63 cells (human), sequence (P16234 24-1089): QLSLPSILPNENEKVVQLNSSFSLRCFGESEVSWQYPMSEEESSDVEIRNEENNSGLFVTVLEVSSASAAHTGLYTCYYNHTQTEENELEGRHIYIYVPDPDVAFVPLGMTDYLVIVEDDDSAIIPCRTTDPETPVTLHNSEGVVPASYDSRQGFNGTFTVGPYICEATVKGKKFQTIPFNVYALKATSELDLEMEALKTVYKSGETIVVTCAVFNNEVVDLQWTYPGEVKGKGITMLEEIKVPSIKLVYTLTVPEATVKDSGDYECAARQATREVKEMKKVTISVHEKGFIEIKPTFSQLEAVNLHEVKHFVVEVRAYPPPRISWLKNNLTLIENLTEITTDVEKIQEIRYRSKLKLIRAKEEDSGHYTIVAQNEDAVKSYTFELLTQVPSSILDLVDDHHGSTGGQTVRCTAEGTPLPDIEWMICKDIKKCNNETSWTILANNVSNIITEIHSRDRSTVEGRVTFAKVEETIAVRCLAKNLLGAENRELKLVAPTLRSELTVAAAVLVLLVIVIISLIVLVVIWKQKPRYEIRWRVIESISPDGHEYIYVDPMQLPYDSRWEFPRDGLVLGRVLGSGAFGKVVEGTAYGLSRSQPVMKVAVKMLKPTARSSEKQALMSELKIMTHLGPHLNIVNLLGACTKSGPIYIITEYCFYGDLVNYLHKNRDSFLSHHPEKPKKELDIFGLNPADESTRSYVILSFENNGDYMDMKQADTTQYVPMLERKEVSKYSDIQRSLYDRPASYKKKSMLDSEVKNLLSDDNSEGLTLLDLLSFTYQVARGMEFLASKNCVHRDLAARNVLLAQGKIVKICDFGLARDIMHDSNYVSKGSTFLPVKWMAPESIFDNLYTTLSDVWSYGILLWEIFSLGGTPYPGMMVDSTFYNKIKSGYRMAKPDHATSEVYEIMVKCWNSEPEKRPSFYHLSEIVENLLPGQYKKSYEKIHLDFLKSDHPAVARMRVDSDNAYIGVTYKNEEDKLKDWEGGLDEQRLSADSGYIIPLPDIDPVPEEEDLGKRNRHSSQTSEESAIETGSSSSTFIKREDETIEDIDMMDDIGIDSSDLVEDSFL

CD140a control antibody
Kd: 0.146 nM

Reference: US20080089837A1
